Details: Methanothermobacter thermautotrophicus (strain ATCC 29096 / DSM 1053 / JCM 10044 / NBRC 100330 / Delta H); pH 7.5; Thermal; DSC; potassium phosphate buffer; reversible: no; whole UniProt chain shown

B1: Geranylgeranylglyceryl phosphate synthase wild type, O26652 (protein)
chain: MKVEDYFHDILRERKIHLTLIDPEEQTPEEAVEIARAAIRGGTDGIMLGGSTTDSSELDNTARALRENIDVPIILFPGNTTGVSRYADAIFFMSLLNSTNPYWIIGAQALGAATVKKMGIEALPMGYLVVEPGGTVGWVGDTKPVPRNKPDIAAAYAMAAEFLGMRLFYLEAGSGAPEHVPEEMIALVKRCTDQILIVGGGIRSGEDAARVAGAGADVVVTGTVVENSDNVEDKIREIVEGMGSV
unfolding enthalpy (calorimetric): 389 kcal/mol
